By stoichiometry N is commonly meant a count of units in the complex or per binding partner.

The values below come from PMC2628294.

Experiment [1] concerns the target GlcNAc-containing IgG1-Fc (2) (human). Briefly: SEC. (In general: In gel filtration, larger molecules generally elute earlier.)
For experiment [2], the target named is soluble human FcγIIIa receptor (human) (UniProt P08637). Nature of the experiment: SPR. Background: Surface plasmon resonance follows binding to a sensor surface in real time, without labels.
Sequence of UniProt P08637 (P08637 17-208): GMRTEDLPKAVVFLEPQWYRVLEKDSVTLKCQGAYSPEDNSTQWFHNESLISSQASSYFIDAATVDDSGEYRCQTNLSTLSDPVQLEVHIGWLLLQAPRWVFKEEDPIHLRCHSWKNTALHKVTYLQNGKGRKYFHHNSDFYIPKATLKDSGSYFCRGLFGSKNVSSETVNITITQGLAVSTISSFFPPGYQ
Experiment [3] has as its target PNGase F deglycosylated IgG1-Fc (human). Briefly: SDS-PAGE under non-reducing conditions.
Experiment [4] has as its target yeast-expressed recombinant human IgG1-Fc (1) (human). Briefly: SEC.
The target is the same in experiment [5]. Briefly: SDS-PAGE under non-reducing conditions.

Take “GlcNAc-containing IgG1-Fc (2) (domain or fragment)”: in experiment [1], the stoichiometry N came to 2. Further, in experiment [2], the fold less active in binding than the Fc glycoform (4) was over 17 fold.

“IgG1-Fc glycoform (4), Man3GlcNAc2-IgG1-Fc (domain or fragment)” displayed a fold more active in binding than the CHO-expressed IgG1-Fc in experiment [2] of 2 fold. Same read-out and setting: under “IgG1-Fc glycoform (6), Gal2Man3GlcNAc2-IgG1-Fc (domain or fragment)” stands 1.4 fold. As to “PNGase F deglycosylated IgG1-Fc (domain or fragment)”, the stoichiometry N in experiment [3] came to 2. Turning to “yeast-expressed recombinant human IgG1-Fc (1) (domain or fragment)”, the stoichiometry N in experiment [4] and in experiment [5] was 2 in each case.
